Data reported in IntAct's records for PubMed 16098514.

B1: GTPase RhebL1 (Homo sapiens), Q8TAI7 (parent)
chain: MPLVRYRKVVILGYRCVGKTSLAHQFVEGEFSEGYDPTVENTYSKIVTLGKDEFHLHLVDTAGQDEYSILPYSFIIGVHGYVLVYSVTSLHSFQVIESLYQKLHEGHGKTRVPVVLVGNKADLSPEREVQAVEGKKLAESWGATFMESSARENQLTQGIFTKVIQEIARVENSYGQERRCHLM

Variants of: B1
Conditions: with mtor_human MTOR

Row | effect of a mutation on the interaction | Variant
1 | disrupting interaction | N41A
